The source of these data is IntAct's records for PubMed 19763089.

B1: NF-kappa-B essential modulator (Mus musculus), O88522 (parent)
chain: MNKHPWKNQLSEMVQPSGGPAEDQDMLGEESSLGKPAMLHLPSEQGTPETLQRCLEENQELRDAIRQSNQMLRERCEELLHFQVSQREEKEFLMCKFQEARKLVERLSLEKLDLRSQREQALKELEQLKKCQQQMAEDKASVKAQVTSLLGELQESQSRLEAATKDRQALEGRIRAVSEQVRQLESEREVLQQQHSVQVDQLRMQNQSVEAALRMERQAASEEKRKLAQLQAAYHQLFQDYDSHIKSSKGMQLEDLRQQLQQAEEALVAKQELIDKLKEEAEQHKIVMETVPVLKAQADIYKADFQAERHAREKLVEKKEYLQEQLEQLQREFNKLKVGCHESARIEDMRKRHVETPQPPLLPAPAHHSFHLALSNQRRSPPEEPPDFCCPKCQYQAPDMDTLQIHVMECIE

Experiment [1] covers variants of B1. To be noted: with ubc_human UBC.
Experiment [2] covers variants of B1. To be noted: with ubc_human UBC. This is another data set of the same source.

ubc_human UBC, P0CG48, sequence (P0CG48 whole entry, looked up): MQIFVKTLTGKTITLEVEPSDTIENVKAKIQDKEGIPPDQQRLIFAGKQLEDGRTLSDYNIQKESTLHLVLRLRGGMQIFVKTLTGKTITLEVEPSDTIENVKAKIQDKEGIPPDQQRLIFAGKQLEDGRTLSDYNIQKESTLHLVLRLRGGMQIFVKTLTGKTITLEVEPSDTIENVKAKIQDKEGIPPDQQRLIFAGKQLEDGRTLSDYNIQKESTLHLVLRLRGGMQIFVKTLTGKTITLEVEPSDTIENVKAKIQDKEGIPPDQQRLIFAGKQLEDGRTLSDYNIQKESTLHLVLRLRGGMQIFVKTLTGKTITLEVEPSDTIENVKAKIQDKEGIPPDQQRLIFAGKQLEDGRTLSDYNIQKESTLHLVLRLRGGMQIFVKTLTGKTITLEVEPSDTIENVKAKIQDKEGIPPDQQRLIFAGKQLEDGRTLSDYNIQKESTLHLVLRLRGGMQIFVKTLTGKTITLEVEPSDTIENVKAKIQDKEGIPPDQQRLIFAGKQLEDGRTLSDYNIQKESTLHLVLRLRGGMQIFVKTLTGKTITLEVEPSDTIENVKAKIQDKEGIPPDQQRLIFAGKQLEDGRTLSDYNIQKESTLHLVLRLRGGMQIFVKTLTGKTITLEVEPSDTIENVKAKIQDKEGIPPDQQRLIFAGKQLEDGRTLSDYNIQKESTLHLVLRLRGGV

For the variant Y301S, the “effect of a mutation on the interaction” value is “disrupting interaction” in the experiment with ubc_human UBC, P0CG48 [1] and “decreasing interaction” with ubc_human UBC, P0CG48 [2].
As for D304N, the “effect of a mutation on the interaction” value in the experiment with ubc_human UBC, P0CG48 [1] is “disrupting interaction”; in the experiment with ubc_human UBC, P0CG48 [2] it was “decreasing interaction”.
